Assay results from the supplement of paper PMC9732359.
± gives the uncertainty stated by the source.

Experiment: protein stability index of a GFP-peptide fusion (yeast GPS) (PSI 1-4); higher = more stable; sorted into four equal gates, so the index is relative within each strain
In short: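 For each peptide, the protein stability index sums the read frequency in every gate after multiplying it by the gate number. Read frequencies came from plasmids that were PCR-amplified from each gate and Illumina-sequenced, with reads assigned to strains by barcodes. The gates were four equal bins of GFP/Cherry fluorescence ratio applied to mid-log yeast in leucine-free medium carrying a pooled library of tiled 17-residue yeast protein peptides fused downstream of GFP on a Cherry-expressing plasmid.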

Row | Sequence | protein stability index (doa10∆) | protein stability index (pdr5∆) | protein stability index (ubr1∆) | protein stability index (san1∆)
1 | VYLSLLDKDSSQSSAAA [RPN6] | 3 ± 0.16 | 3.21 ± 0.069 | 3.03 ± 0.071 | 
2 | GPRAVLTRQPTEGRSRD [RET1] | 3.43 ± 0.091 | 3.35 ± 0.066 | 3.34 ± 0.057 | 3.1 ± 0.067
3 | TPRGNHWMGSSVSGSPR [YMR129W/POM152] | 3.25 ± 0.077 | 3.39 ± 0.077 | 3.13 ± 0.064 | 3.01 ± 0.053
4 | KLLDSGCENPADVFRRC [SRP72] | 2.46 ± 0.058 | 1.72 ± 0.047 | 2.16 ± 0.071 | 2.13 ± 0.1
5 | AKICALLFFNFSHSLTT [NUT1] | 1.43 ± 0.045 | 1.45 ± 0.036 | 1.27 ± 0.026 | 1.4 ± 0.051
6 | TLSNGLIASHYGVSFFT [BRR2] | 2.74 ± 0.055 | 2.84 ± 0.045 | 2.83 ± 0.04 | 2.39 ± 0.059
7 | EGKKVMAPYLPGSRASS [RPN2] | 2.47 ± 0.065 | 2.69 ± 0.074 | 2.54 ± 0.052 | 2.4 ± 0.072
8 | KGKTPKNAAESSYMGKH [PRP28] | 3.18 ± 0.12 | 3.22 ± 0.14 | 3.33 ± 0.085 | 2.86 ± 0.16
9 | KKAEKAARKAEKAKSAG [RPL24A] | 3.34 ± 0.066 | 3.32 ± 0.053 | 3.48 ± 0.055 | 3.53 ± 0.046
10 | LRLLEVTDDDRLWLKKV [POP8] | 1.36 ± 0.061 | 1.68 ± 0.072 | 1.61 ± 0.071 | 1.35 ± 0.095
11 | IDQDIHGIVFQHPFPLA [SSN2] | 2.13 ± 0.044 | 2.25 ± 0.051 | 2.64 ± 0.032 | 2.24 ± 0.059
12 | MQNSKVESVCQKLDILV [SMC4] | 2.26 ± 0.065 | 2.13 ± 0.059 | 1.87 ± 0.056 | 2.3 ± 0.088
13 | ANFGEILEDFRVIKDFK [YMR153W/NUP53] | 3.07 ± 0.14 | 3.4 ± 0.16 | 3.28 ± 0.096 | 3.37 ± 0.068
14 | QPWQMDTNNEADLMALE [SNF12] | 2.59 ± 0.068 | 3.25 ± 0.076 | 3.2 ± 0.036 | 2.86 ± 0.054
15 | QLVIQQGTGKKTASLGN [ISW2] | 3.2 ± 0.24 | 2.83 ± 0.21 | 3.41 ± 0.24 | 3.23 ± 0.21
16 | DVSRVAAVETLYQDMAA [RPL20A] | 2.66 ± 0.066 | 2.67 ± 0.08 | 2.09 ± 0.071 | 2.37 ± 0.089
17 | VQMDKIRKIVRKDENQF [AAR2] | 3.25 ± 0.17 | 2.81 ± 0.18 |  | 
18 | IIMFVGLQGSGKTTSCT [SRP54] | 2.8 ± 0.067 | 3.04 ± 0.054 | 3.13 ± 0.046 | 3.13 ± 0.064
19 | FNYNIFMHDPSVFYNIA [SIR2] | 1.46 ± 0.055 | 1.69 ± 0.037 | 1.76 ± 0.048 | 1.5 ± 0.073
20 | NNNNAPIIIYGTENTER [YOR098C/NUP1] | 2.62 ± 0.054 | 2.69 ± 0.06 | 2.74 ± 0.039 | 2.83 ± 0.045
21 | DTIDNVKSKIQDKEGIP [RPS31] | 3.22 ± 0.098 | 3.46 ± 0.089 | 3.57 ± 0.075 | 3.38 ± 0.05
22 | ESAVKYALAAKDRFDID [RPN2] | 3.54 ± 0.27 | 3.09 ± 0.29 | 3.45 ± 0.1 | 2.87 ± 0.22
23 | FEFQYLTIGVKFFMKHG [SRB5] | 1.18 ± 0.046 | 1.34 ± 0.047 | 1.18 ± 0.035 | 1.21 ± 0.066
24 | ELKDICSFAVTKSSLND [YML103C/NUP188] | 2.87 ± 0.072 | 2.96 ± 0.065 | 3.02 ± 0.05 | 2.89 ± 0.072
25 | VGIDTHTATDIYQTLIA [SNF2] | 2.12 ± 0.05 | 2.03 ± 0.048 | 1.72 ± 0.028 | 1.85 ± 0.05
26 | PGMPNMPGMPNMPGMPK [SRP54] | 3.37 ± 0.15 | 3.22 ± 0.095 | 3.3 ± 0.071 | 3.21 ± 0.25

Row | Sequence | protein stability index (doa10∆) | protein stability index (pdr5∆) | protein stability index (ubr1∆) | protein stability index (san1∆)
27 | VKTPKKTKYILQRPTAT [CSN12] | 2.89 ± 0.069 | 3.03 ± 0.076 | 2.43 ± 0.21 | 2.6 ± 0.079
28 | EIARQMRDKSFGRTLAS [RPL12A] | 3.25 ± 0.1 | 3.07 ± 0.12 | 2.72 ± 0.18 | 2.88 ± 0.13
29 | FMLILALFVFYSPNTLG [COB] | 2.28 ± 0.074 | 2.15 ± 0.057 | 2.52 ± 0.053 | 2.46 ± 0.056
30 | PLLPIVEELMKKRRGSR [SNU114] | 2.4 ± 0.11 | 2.79 ± 0.12 | 2.83 ± 0.13 | 2.87 ± 0.074
31 | KKYTQNNPLLLIVDVKQ [RPN8] | 1.4 ± 0.068 | 1.31 ± 0.046 | 1.16 ± 0.048 | 1.06 ± 0.14
32 | EREPVPLGILHIPICVT [RRP45] | 1.81 ± 0.077 | 1.88 ± 0.06 | 1.95 ± 0.059 | 1.47 ± 0.19
33 | LGGPITKESQPTIEEDL [FAS2] | 3.02 ± 0.21 | 3.19 ± 0.15 | 2.96 ± 0.069 | 2.77 ± 0.18
34 | WREIIEKVRDYENSISK [IRR1] | 2.86 ± 0.076 | 2.59 ± 0.085 | 2.67 ± 0.047 | 2.39 ± 0.061
35 | RERRAALTDFERFQVMV [RPL14A] | 1.77 ± 0.12 | 2.24 ± 0.094 | 1.8 ± 0.07 | 1.41 ± 0.13
36 | RSILQSLNPALQEKIST [SWI1] | 2.45 ± 0.056 | 2.79 ± 0.069 | 2.71 ± 0.073 | 2.72 ± 0.1
37 | NTGDGSISTYKDILNLA [ECM29] | 3.03 ± 0.083 | 2.97 ± 0.11 | 3.09 ± 0.079 | 3.04 ± 0.081
38 | SYYDNDLDETTQTFNGS [YML031W/NDC1] | 2.77 ± 0.043 | 2.78 ± 0.033 | 2.81 ± 0.033 | 2.66 ± 0.038
39 | DLTGSEPIKEIIDNWEK [FAS1] |  | 2.79 ± 0.15 | 3.07 ± 0.16 | 
40 | FLYVLIPAGIYWYWWKN [QCR8] | 1.93 ± 0.11 | 1.33 ± 0.13 | 1.35 ± 0.27 | 1.62 ± 0.21
41 | PSTSSNMDVGNPRKRKA [GAL11] | 2.65 ± 0.18 | 2.25 ± 0.12 | 3.27 ± 0.088 | 2.75 ± 0.12
42 | MSLKKCQEEVSTIEKDM [SMC2] | 2.48 ± 0.1 | 2.73 ± 0.12 | 2.79 ± 0.2 | 2.75 ± 0.14
43 | DEDESQNIAQSSNQSAP [HRT1] | 2.99 ± 0.07 | 3.15 ± 0.074 | 3.19 ± 0.043 | 3.14 ± 0.051
44 | ASTPSIRPDGRLPHQFR [RRP42] | 2.9 ± 0.14 | 3.21 ± 0.12 | 2.99 ± 0.089 | 2.81 ± 0.19
45 | KNDEVLGLLLPIAASTD [RPN1] | 2.02 ± 0.055 | 2.3 ± 0.062 | 2.6 ± 0.071 | 2.47 ± 0.063
46 | PDGVVVHRDDPALVGKL [SNF6] | 3.3 ± 0.071 | 3.49 ± 0.071 | 3.33 ± 0.053 | 3.36 ± 0.054
47 | SKWFNLEKIHSIEVQSL [SWI3] | 2.67 ± 0.24 | 2.45 ± 0.13 | 2.72 ± 0.12 | 1.59 ± 0.14
48 | LKLEYYNLLVKISLHKR [RPN5] | 1.38 ± 0.26 | 1.28 ± 0.26 | 1.13 ± 0.084 | 
49 | KPSLVDVHLLESKVYHK [RPN6] | 1.74 ± 0.045 | 1.9 ± 0.053 | 2.05 ± 0.061 | 1.77 ± 0.086
50 | RLRQGAAKLRTLDYAER [RPL2A] | 1.61 ± 0.071 | 1.51 ± 0.049 | 1.56 ± 0.048 | 1.56 ± 0.12
51 | ASKTNLRLTDVTNSLSN [GAL11] | 3.15 ± 0.072 | 3.38 ± 0.067 | 3.28 ± 0.064 | 2.96 ± 0.051
